In experiment [1] the target is T1, 人补体D因子 (human complement Factor D) (human, UniProt P00746 26-253).
T1 construct: Bought protein; also called 人D因子; human CFD
Description: ELISA on coated human Factor D and BLI.

The target of experiment [2] is T1, 人补体D因子 (human complement Factor D). Description: SPR (Biacore T200), full-length antibody captured by anti-human IgG Fc on CM5, antigen in flow, 1:1 model. On the technique in general: SPR reads the build-up and loss of mass on a sensor chip optically.
The target is the same in experiment [3]. Nature of the experiment: SPR (Biacore T200), Fab captured on CM5 chip.

Positions count from the first letter of the chain named.

T1 sequence (P00746 26-253 limits assumed): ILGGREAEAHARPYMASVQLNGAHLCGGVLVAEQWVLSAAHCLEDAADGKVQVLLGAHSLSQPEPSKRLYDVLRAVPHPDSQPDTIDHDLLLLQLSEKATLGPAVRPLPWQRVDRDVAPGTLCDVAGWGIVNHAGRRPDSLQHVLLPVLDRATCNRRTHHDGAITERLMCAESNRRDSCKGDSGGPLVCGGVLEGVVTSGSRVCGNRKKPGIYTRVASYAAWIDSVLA

B1: 抗人D因子鼠源单克隆抗体 Mab25 (antibody, V domains shown)
VH: AVQLQQSGPELVKPGASVKMSCKASGYTFTSYVINWMKQKPGQGLEWIGYINPYIDDSEYNEKFEGKATLTSDKTSSIAYMELSSLTSEDSAVYYCAREGPAFAYWGQGTLVTVSA
VL: DILLTQTPLSLPVSLGDHASVSCRSSQNLVHSNGDTYLEWYLQKPGQSPKLLIYKVSTRFSGVPDRFSGSGSGTDFTLKISRVEAEDLGVYYCFQGSHVPPTFGGGTKLEIK
notes: Mouse hybridoma antibody; The heavy chain was cloned with a primer for the mouse IgG1 constant region; also called 杂交瘤细胞株25
On to B1, for which the binding result in experiment [1] is reported as “binds”.

B2: 抗人D因子嵌合抗体 (Mab25的嵌合抗体, 全长) (antibody, V domains shown)
VH: B1 VH
VL: B1 VL
notes: Chimeric form of Mab25 (mouse variable regions on human constant regions), compared with the humanised antibodies in the Biacore assay
Turning to B2, the binding result in experiment [2] was “binds”.

B3: 人源化Fab克隆 AS01237 (Fab, V domains shown)
VH: EVQLVQSGAEVKKPGASVKVSCKASGYTFTSYVINWVRQAPGQGLEWMGYINPYIDDSEYNEKFEGRVTMTRNTSISTAYMELSSLRSEDTAVYYCAREGPAFAYWGQGTLVTVSS
VL: DIVMTQTPLSLSVTPGQPASISCRSSQNLVHSNGDTYLEWYQQKPGQPPKLLIYKVSTRFSGVPDRFSGSGSGTDFTLKISRVEAEDVGVYYCFQGSHVPPTFGQGTKVEIK
notes: Fab fragment with a SASA tag, as screened on Biacore; also called AS01237 Fab
On to B3, for which the binding result in experiment [3] is on record as “binds”.

B4: 抗人D因子人源化抗体 AS01326 (全长抗体) (antibody, V domains shown)
VH: B3 VH with E1Q, A9S, V11L, A40M, Q43K, N73D, S85R, E89D
VL: B3 VL with I2V, T7S, S12P, P15L, Q42L, K50Q, V88F
notes: Full-length antibody from pTT5 in HEK293, protein A purified, captured by anti-human IgG Fc
B4: the binding result in experiment [2] is “binds”.

B5: 人源化Fab克隆 AS01326 (Fab, V domains shown)
VH: B3 VH with E1Q, A9S, V11L, A40M, Q43K, N73D, S85R, E89D
VL: B3 VL with I2V, T7S, S12P, P15L, Q42L, K50Q, V88F
notes: Fab fragment with a SASA tag, as screened on Biacore; also called AS01326 Fab
On to B5, for which the binding result in experiment [3] is on record as “binds”.

B6: 抗人D因子人源化抗体 AS01237 (全长抗体) (antibody, V domains shown)
VH: B3 VH
VL: B3 VL
notes: as for B4
Turning to B6, the binding result in experiment [2] is listed as “binds”.

B7: 抗人D因子人源化抗体 AS01328 (全长抗体) (antibody, V domains shown)
VH: B3 VH with E1Q, A9S, V11L, P41T, N73D, I76T, A79V
VL: B3 VL with Q17E, Q42L, P48A, K50R
notes: as for B4
Take B7: the binding result in experiment [2] is recorded as “binds”.

B8: 人源化Fab克隆 AS01328 (Fab, V domains shown)
VH: B3 VH with E1Q, A9S, V11L, P41T, N73D, I76T, A79V
VL: B3 VL with Q17E, Q42L, P48A, K50R
notes: Fab fragment with a SASA tag, as screened on Biacore; also called AS01328 Fab
On to B8, for which the binding result in experiment [3] was “binds”.

Values taken from CN106905431A (XUHUA (SHANGHAI) BIOLOGICAL RES AND DEV CENTER CO LTD, dated 2017).
